Data from article PMC7322680 (Biochemistry and Biophysics Reports, 2020).
Several values for one entry are separate records, joined by “and”; a condition that tells them apart may be missing. Equal values may be shown once.

Legend:
[1] = target: the molecule itself; test: SEC
[2] = target: the molecule itself; test: SEC-MALS

B1: human podocin domain (residues 126-350) (domain or fragment, UniProt Q9NP85 126-350, looked up)
chain: KVVQEYERVIIFRLGHLLPGRAKGPGLFFFLPCLDTYHKVDLRLQTLEIPFHEIVTKDMFIMEIDAICYYRMENASLLLSSLAHVSKAVQFLVQTTMKRLLAHRSLTEILLERKSIAQDAKVALDSVTCIWGIKVERIEIKDVRLPAGLQHSLAVEAEAQRQAKVRMIAAEAEKAASESLRMAAEILSGTPAAVQLRYLHTLQSLSTEKPSTVVLPLPFDLLNCL
stoichiometry N [1]: 16 | stoichiometry N [2]: ~16 and 25 and 13
